# Experimental data as given in patent publication US10266631B2, “Method for preparing peptide-polymer conjugate with stabilized α-helix secondary structure and peptide-polymer conjugate prepared thereby” (INDUSTRY-ACADEMIC COOPERATION FOUNDATION, YONSEI UNIVERSITY, priority 2016, dated 2019).
# * marks the point of attachment. Acryloyl = C=CC(=O)*
# Experiment: Circular dichroism (CD) spectroscopy of α-helix secondary structure
# Format: physicochemical
# Conditions: 25° C.
# Method: CD spectra were recorded using a Chirascan circular dichroism spectrometer equipped with a Peltier temperature controller (Applied Photophysics Ltd.). The CD spectra of peptides were recorded at 190-260 nm.
# The temperature was 25° C. and the peptide concentration was 6 μM.
# The α-helix peptide substituted with an acryloyl group prepared in Preparation Example 1 (bisAAm-p53) was dissolved in a 10% HFIP solution (based on final concentration). After mixing with […] acrylamide, a peptide-polymer conjugate was prepared through free radical induced polymerization by adding ammonium persulfate (APS) and N,N,N′,N′-tetramethylethylenediamine (TEMED). The prepared 9 μM α-helix peptide multimer was diluted with a 0.2% HIFP solution.
# Before CD spectrum measurement, HFIP was completely evaporated from the samples through centrifugation.
substance,measurement,setting,value
"Preparation Example 1: p53-derived peptide Ac-QSQQTFKNLWRLLKQN-NH2 with both lysine ε-amines (i, i+7) acryloylated; FIG. 16A (Ac-QSQQTFK(Acryloyl)NLWRLLK(Acryloyl)QN-NH2; SMILES C=CC(=O)NCCCC[C@H](NC(=O)[C@H](CC(C)C)NC(=O)[C@H](CC(C)C)NC(=O)[C@H](CCCNC(=N)N)NC(=O)[C@H](Cc1c[nH]c2ccccc12)NC(=O)[C@H](CC(C)C)NC(=O)[C@H](CC(N)=O)NC(=O)[C@H](CCCCNC(=O)C=C)NC(=O)[C@H](Cc1ccccc1)NC(=O)[C@@H](NC(=O)[C@H](CCC(N)=O)NC(=O)[C@H](CCC(N)=O)NC(=O)[C@H](CO)NC(=O)[C@H](CCC(N)=O)NC(C)=O)[C@@H](C)O)C(=O)N[C@@H](CCC(N)=O)C(=O)N[C@@H](CC(N)=O)C(N)=O)",α-helix secondary structure (CD spectrum),"10% HFIP solution (HFIP:water=1:9, v/v), peptide 6 μM (FIG. 4)",stabilized
same,α-helix secondary structure (CD spectrum),"distilled water, peptide 6 μM (FIG. 3)",not stabilized but unfolded
